Results from US20110306546A1, “COMPOSITIONS FOR INCREASING HAIR GROWTH AND DECREASING HAIR LOSS” (ALVI ARMANI GENOMICS INC., priority 2010, published 2011).

B1: Eph: member of the Ephrin family, binds to the Eph receptor (protein, UniProt P52797 23-214, looked up)
Ephrin-A3: QGPGGALGNRHAVYWNSSNQHLRREGYTVQVNVNDYLDIYCPHYNSSGVGPGAGPGPGGGAEQYVLYMVSRNGYRTCNASQGFKRWECNRPHAPHSPIKFSEKFQRYSAFSLGYEFHAGHEYYYISTPTHNLHWKCLRMKVFVCCASTSHSGEKPVPTLPQFTMGPNVKINVLEDFEGENPQVPKLEKSISG
B2: Wnt: Wnt-3a growth factor (protein, UniProt P56704 19-352, looked up)
Protein Wnt-3a: SYPIWWSLAVGPQYSSLGSQPILCASIPGLVPKQLRFCRNYVEIMPSVAEGIKIGIQECQHQFRGRRWNCTTVHDSLAIFGPVLDKATRESAFVHAIASAGVAFAVTRSCAEGTAAICGCSSRHQGSPGKGWKWGGCSEDIEFGGMVSREFADARENRPDARSAMNRHNNEAGRQAIASHMHLKCKCHGLSGSCEVKTCWWSQPDFRAIGDFLKDKYDSASEMVVEKHRESRGWVETLRPRYTYFKVPTERDLVYYEASPNFCEPNPETGSFGTRDRTCNVSSHGIDGCDLLCCGRGHNARAERRREKCRCVFHWCCYVSCQECTRVYDVHTCK
B3: BMP-6: bone morphogenesis protein-6 (protein, UniProt P22004 375-513, looked up)
Bone morphogenetic protein 6: SASSRRRQQSRNRSTQSQDVARVSSASDYNSSELKTACRKHELYVSFQDLGWQDWIIAPKGYAANYCDGECSFPLNAHMNATNHAIVQTLVHLMNPEYVPKPCCAPTKLNAISVLYFDDNSNVILKKYRNMVVRACGCH
B4: FGF10: FGF-10, also known as keratinocyte growth factor (KGF2) (protein, UniProt O15520 38-208, looked up)
Fibroblast growth factor 10: QALGQDMVSPEATNSSSSSFSSPSSAGRHVRSYNHLQGDVRWRKLFSFTKYFLKIEKNGKVSGTKKENCPYSILEITSVEIGVVAVKAINSNYYLAMNKKGKLYGSKEFNNDCKLKERIEENGYNTYASFNWQHNGRQMYVALNGKGAPRRGQKTRRKNTSAHFLPMVVHS
B5: Nog: secreted polypeptide noggin, binds and inactivates TGF-beta superfamily signaling proteins (protein, UniProt Q13253 28-232, looked up)
Noggin: QHYLHIRPAPSDNLPLVDLIEHPDPIFDPKEKDLNETLLRSLLGGHYDPGFMATSPPEDRPGGGGGAAGGAEDLAELDQLLRQRPSGAMPSEIKGLEFSEGLAQGKKQRLSKKLRRKLQMWLWSQTFCPVLYAWNDLGSRFWPRYVKVGSCFSKRSCSVPEGMVCKPSKSVHLTVLRWRCQRRGGQRCGWIPIQYPIISECKCSC

system: Hair follicles (HF); experiment: Hair follicle (HF) explant growth assay; format: cell-based, human; conditions: HF elongation after 7-8 days; 20 ng/ml of each growth factor, hypoxanthine 2 μM; mean of 6-8 independent experiments
Protocol: Hair follicles (HF) were extracted from the occipital area of 6-8 individuals with hair loss. The HFs were processed to equivalent lengths and cultured in William's E medium supplemented with 100 units/ml penicillin G, 100 μg/ml streptomycin, 0.25 μg/ml amphotericin B, […], 1 ng/ml hydrocortisone; basic medium or control medium or basic medium supplemented with 20 ng/ml of each of IGF-1, FGF-2, PDGF, Wnt-3A (Wnt), Noggin (Nog), Ephrin A3 (Eph), SHH and BMP-6 as well as hypoxanthine (Hyx) at 2 μM final concentration. The “GF10 cocktail” or “GF10” includes all nine growth factors and hypoxanthine while the “GF7 cocktail” or “GF7” contains six growth factors (all growth factors of GF10 except for FGF-10, Eph and SHH) and hypoxanthine. Growth promotion was measured as elongation of the HF at the end of 7-8 days. All growth factors and hypoxanthine promoted growth individually and in combination (FIG. 1 and Table 1).

| Molecule | Increase in growth (% control) Mean [% control] |
| --- | --- |
| B1 | 57.61 |
| B2 | 104.817 |
| B3 | 46.44 |
| B4 | 48.55 |
| B5 | 51.45 |
